# Molecular target: Jak2 (UniProt O60674)
# Test: phosphorylation enrichment, bacterial display (enrichment ratio); higher = better substrate or ligand; peptides without Tyr show the background
# 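For SH2 binding enrichment of the phosphorylated peptide, bacterial display in this document: peptide library displayed on the E. coli surface as eCPX fusions, selected cells deep-sequenced, score is each peptide's frequency after selection divided by its frequency in the input.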
# 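For phosphorylation enrichment, bacterial display in this document: 11-residue human phosphosite peptides and single-mutation variants displayed on the E. coli surface, counted by deep sequencing, each peptide's frequency after selection divided by its frequency in the unselected input library; frequency after pTyr selection over input frequency; kinase dosed for 20-30% of maximal phosphorylation in three min.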
# Sequence of Jak2 (O60674 whole entry, looked up): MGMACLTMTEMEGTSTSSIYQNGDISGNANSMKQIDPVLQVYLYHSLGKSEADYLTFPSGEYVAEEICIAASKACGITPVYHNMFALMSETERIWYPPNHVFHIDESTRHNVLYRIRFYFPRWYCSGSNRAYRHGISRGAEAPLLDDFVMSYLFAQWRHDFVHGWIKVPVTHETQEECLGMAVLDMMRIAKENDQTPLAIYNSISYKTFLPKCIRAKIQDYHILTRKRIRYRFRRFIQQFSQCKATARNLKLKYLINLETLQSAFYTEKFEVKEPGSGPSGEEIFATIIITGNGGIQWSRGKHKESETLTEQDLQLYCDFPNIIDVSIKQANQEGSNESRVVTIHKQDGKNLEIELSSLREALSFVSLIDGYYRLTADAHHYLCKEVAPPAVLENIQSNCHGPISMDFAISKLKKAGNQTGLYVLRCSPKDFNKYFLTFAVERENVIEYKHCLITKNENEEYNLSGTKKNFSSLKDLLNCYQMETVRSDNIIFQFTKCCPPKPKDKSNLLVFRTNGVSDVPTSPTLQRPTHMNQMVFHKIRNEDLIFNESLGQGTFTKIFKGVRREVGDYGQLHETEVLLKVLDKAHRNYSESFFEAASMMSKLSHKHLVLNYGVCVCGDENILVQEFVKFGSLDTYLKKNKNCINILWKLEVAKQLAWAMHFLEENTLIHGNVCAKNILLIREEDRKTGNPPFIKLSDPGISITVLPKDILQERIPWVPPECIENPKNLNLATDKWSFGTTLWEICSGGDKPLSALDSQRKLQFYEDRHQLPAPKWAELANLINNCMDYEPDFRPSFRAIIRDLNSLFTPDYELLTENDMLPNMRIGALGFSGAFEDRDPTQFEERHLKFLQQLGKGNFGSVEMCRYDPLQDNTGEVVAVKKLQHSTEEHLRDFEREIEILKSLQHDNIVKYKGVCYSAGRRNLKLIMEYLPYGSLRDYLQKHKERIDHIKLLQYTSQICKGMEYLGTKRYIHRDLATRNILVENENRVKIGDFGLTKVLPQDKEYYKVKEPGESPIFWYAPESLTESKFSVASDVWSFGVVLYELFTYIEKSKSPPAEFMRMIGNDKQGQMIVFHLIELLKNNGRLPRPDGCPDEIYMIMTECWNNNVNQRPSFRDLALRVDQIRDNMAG
row,Sequence,phosphorylation enrichment
1,MEIHAYHKLLE [LMNA_Y376_R377H],1.03
2,SPPILYSFFLN [FCRL6_Y239_D244N_YF],1.05
3,FDDDDYDMDFV [BLM_Y296_T298M],0.945
4,PAQAAYQKVVA [HBB_Y131_V127A],0.59
5,ERLLDYTRTVQ [INPP5E_Y439],1.06
6,LPEHPYHSRPR [NDUFA8_Y142_N140H],0.823
7,GTFVIYVRFGG [FLNB_Y1687_YF],0.711
8,CTTIHYNFKCN [TP53_Y234_M237K_YF],0.545
9,SGRRRYTIAAL [TTR_Y125_P122R],0.51
10,QLYGPYLRIHA [BSCL2_Y213_A212P],0.974
11,VIVRMYDFHVL [RPF2_Y109_G106V_YF],0.901
12,SARFRYLLAEK [LDHB_Y173_M175L],0.641
13,AYGNLYGSRKQ [YIPF7_Y59],0.516
14,SAAAIYMVRHP [PMP22_Y117_T118M],0.587
15,NFRPGYNNFFN [USH2A_Y467_YF],0.712
16,PYADPYYDYEI [ZC3H18_Y371],2.75
17,DFLEKYFKFGC [NNMT_Y24_S29C_YF],0.993
18,LDAFIYDAAVL [GRIN2A_Y730],0.827
19,ATDLAYFLVCK [ASL_Y375_R379C_YF],2.42
20,SKGYAYVHFDS [PABPC5_Y149],1.05
21,KVPAIYGVGTR [CPS1_Y162_D165G],0.562
22,ESMNTYLQTSP [NAT1_Y208],0.825
23,EEQKKNFNAMK [SCN5A_Y1494_Y1494N_YF],0.691
24,GFVEDYRPPFF [ACVRL1_Y421_I417F_YF],0.879
25,QYPDIYAREEV [CRX_Y67_V66I],2.02
26,TVQVAYFTVMM [SPATA17_Y83_M86V_YF],1.3
27,SLMNQYVNKKF [RAB7A_Y28],0.44
28,HVIKLYGACSQ [RET_Y791],1.6
29,TSSAGYRRTPS [ABI1_Y333_G331A],0.476

# Molecular target: Grb2 SH2 (UniProt P62993)
# Test: SH2 binding enrichment of the phosphorylated peptide, bacterial display (enrichment ratio); higher = better substrate or ligand; peptides without Tyr show the background
row,Sequence,SH2 binding enrichment
1,MEIHAYHKLLE [LMNA_Y376_R377H],0.743
2,PAQAAYQKVVA [HBB_Y131_V127A],0.9
3,ERLLDYTRTVQ [INPP5E_Y439],0.777
4,LPEHPYHSRPR [NDUFA8_Y142_N140H],0.958
5,CTTIHYNFKCN [TP53_Y234_M237K_YF],1.23
6,SGRRRYTIAAL [TTR_Y125_P122R],0.58
7,VIVRMYDFHVL [RPF2_Y109_G106V_YF],1.75
8,AYGNLYGSRKQ [YIPF7_Y59],0.748
9,NFRPGYNNFFN [USH2A_Y467_YF],0.9
10,PYADPYYDYEI [ZC3H18_Y371],0.795
11,ATDLAYFLVCK [ASL_Y375_R379C_YF],0.776
12,KVPAIYGVGTR [CPS1_Y162_D165G],0.948
13,ESMNTYLQTSP [NAT1_Y208],0.642
14,EEQKKNFNAMK [SCN5A_Y1494_Y1494N_YF],0.895
15,QYPDIYAREEV [CRX_Y67_V66I],0.687
16,TVQVAYFTVMM [SPATA17_Y83_M86V_YF],0.775

# Other lines, results leading:
row,SH2 binding enrichment,Sequence
1,1.29,SPPILYSFFLN [FCRL6_Y239_D244N_YF]
2,0.795,FDDDDYDMDFV [BLM_Y296_T298M]
3,1.34,GTFVIYVRFGG [FLNB_Y1687_YF]
4,1.29,QLYGPYLRIHA [BSCL2_Y213_A212P]
5,0.766,SARFRYLLAEK [LDHB_Y173_M175L]
6,0.884,SAAAIYMVRHP [PMP22_Y117_T118M]
7,0.84,DFLEKYFKFGC [NNMT_Y24_S29C_YF]
8,1.14,LDAFIYDAAVL [GRIN2A_Y730]
9,0.991,SKGYAYVHFDS [PABPC5_Y149]
10,0.784,GFVEDYRPPFF [ACVRL1_Y421_I417F_YF]
11,0.877,SLMNQYVNKKF [RAB7A_Y28]
12,0.643,HVIKLYGACSQ [RET_Y791]
13,1.03,TSSAGYRRTPS [ABI1_Y333_G331A]

# Molecular target: c-Src SH2
# Test: as above
row,Sequence,SH2 binding enrichment
1,MEIHAYHKLLE [LMNA_Y376_R377H],8.92
2,PAQAAYQKVVA [HBB_Y131_V127A],0.87
3,ERLLDYTRTVQ [INPP5E_Y439],0.39
4,LPEHPYHSRPR [NDUFA8_Y142_N140H],0.704
5,CTTIHYNFKCN [TP53_Y234_M237K_YF],1.23
6,SGRRRYTIAAL [TTR_Y125_P122R],0.468
7,VIVRMYDFHVL [RPF2_Y109_G106V_YF],1.12
8,AYGNLYGSRKQ [YIPF7_Y59],0.593
9,NFRPGYNNFFN [USH2A_Y467_YF],0.497
10,PYADPYYDYEI [ZC3H18_Y371],1.94
11,ATDLAYFLVCK [ASL_Y375_R379C_YF],0.425
12,KVPAIYGVGTR [CPS1_Y162_D165G],0.699
13,ESMNTYLQTSP [NAT1_Y208],0.471
14,EEQKKNFNAMK [SCN5A_Y1494_Y1494N_YF],0.474
15,QYPDIYAREEV [CRX_Y67_V66I],0.552
16,TVQVAYFTVMM [SPATA17_Y83_M86V_YF],0.415

# More lines, now with the values ahead:
row,SH2 binding enrichment,Sequence
1,0.763,SPPILYSFFLN [FCRL6_Y239_D244N_YF]
2,0.485,FDDDDYDMDFV [BLM_Y296_T298M]
3,0.782,GTFVIYVRFGG [FLNB_Y1687_YF]
4,1.07,QLYGPYLRIHA [BSCL2_Y213_A212P]
5,0.437,SARFRYLLAEK [LDHB_Y173_M175L]
6,0.68,SAAAIYMVRHP [PMP22_Y117_T118M]
7,0.674,DFLEKYFKFGC [NNMT_Y24_S29C_YF]
8,0.519,LDAFIYDAAVL [GRIN2A_Y730]
9,11.1,SKGYAYVHFDS [PABPC5_Y149]
10,0.398,GFVEDYRPPFF [ACVRL1_Y421_I417F_YF]
11,0.442,SLMNQYVNKKF [RAB7A_Y28]
12,0.537,HVIKLYGACSQ [RET_Y791]
13,0.45,TSSAGYRRTPS [ABI1_Y333_G331A]

# Molecular target: SHP2-C SH2
# Test: as above
row,Sequence,SH2 binding enrichment
1,MEIHAYHKLLE [LMNA_Y376_R377H],0.762
2,PAQAAYQKVVA [HBB_Y131_V127A],0.884
3,ERLLDYTRTVQ [INPP5E_Y439],0.584
4,LPEHPYHSRPR [NDUFA8_Y142_N140H],0.538
5,CTTIHYNFKCN [TP53_Y234_M237K_YF],1.5
6,SGRRRYTIAAL [TTR_Y125_P122R],0.373
7,VIVRMYDFHVL [RPF2_Y109_G106V_YF],1.28
8,AYGNLYGSRKQ [YIPF7_Y59],0.584
9,NFRPGYNNFFN [USH2A_Y467_YF],0.686
10,PYADPYYDYEI [ZC3H18_Y371],1.03
11,ATDLAYFLVCK [ASL_Y375_R379C_YF],0.748
12,KVPAIYGVGTR [CPS1_Y162_D165G],0.615
13,ESMNTYLQTSP [NAT1_Y208],0.795
14,EEQKKNFNAMK [SCN5A_Y1494_Y1494N_YF],0.644
15,QYPDIYAREEV [CRX_Y67_V66I],0.299
16,TVQVAYFTVMM [SPATA17_Y83_M86V_YF],0.651

# Results, then the sequence that gave them:
row,SH2 binding enrichment,Sequence
1,1.28,SPPILYSFFLN [FCRL6_Y239_D244N_YF]
2,0.606,FDDDDYDMDFV [BLM_Y296_T298M]
3,0.968,GTFVIYVRFGG [FLNB_Y1687_YF]
4,1.54,QLYGPYLRIHA [BSCL2_Y213_A212P]
5,0.593,SARFRYLLAEK [LDHB_Y173_M175L]
6,1.02,SAAAIYMVRHP [PMP22_Y117_T118M]
7,0.763,DFLEKYFKFGC [NNMT_Y24_S29C_YF]
8,0.935,LDAFIYDAAVL [GRIN2A_Y730]
9,29.3,SKGYAYVHFDS [PABPC5_Y149]
10,0.675,GFVEDYRPPFF [ACVRL1_Y421_I417F_YF]
11,0.697,SLMNQYVNKKF [RAB7A_Y28]
12,0.763,HVIKLYGACSQ [RET_Y791]
13,0.405,TSSAGYRRTPS [ABI1_Y333_G331A]
